In patent publication US20160046707A1 (EISAI R AND D MANAGEMENT, published 2016):

Legend:
Experiment in all cases: ELISA, plate-bound chemokine (1 ug/ml), antibody 10 ug/ml, OD450
[1] = biological target: T1, recombinant human CCL28 (human, UniProt Q9NRJ3 23-127, limits assumed)
T1 sequence (looked up): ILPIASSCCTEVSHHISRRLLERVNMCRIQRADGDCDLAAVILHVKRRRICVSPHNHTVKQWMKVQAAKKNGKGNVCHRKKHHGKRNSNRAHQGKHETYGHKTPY
Description: (§1) The wells of a 96-well plate were coated with 1 μg/ml of the recombinant human chemokines in PBS (−). After overnight incubation at 4° C., the wells were blocked with 1× Block-Ace (Dainippon Sumitomo Pharma, UK-B80) for 1 hour at room temperature. After washing twice with 0.02% Tween 20/PBS (−), we added 50 μl of 10 μg/ml purified 36F7C10, chimeric 36F710, HC2/LK3, or HC2/LC3 in 0.02% Tween 20/PBS (−) to each well. The wells were incubated for 1 hour at room temperature and washed three times as described in Example 3. […] After washing five times, a TMBZ (3,3′,5,5′-tetramethylbenzidine) solution (1%, in N,N-Dimethylformamide) was added to the wells and incubated for 15-30 minutes. The reaction was stopped by adding an equal volume of a 2 M H₂SO₄ stopping solution, and the optical density was read at 450 nm by ARVO (PerkinElmer).

[2] = biological target: T2, recombinant human CXCL9 (human, UniProt Q07325 23-125)
T2 construct: also called MIG
T2 sequence (looked up): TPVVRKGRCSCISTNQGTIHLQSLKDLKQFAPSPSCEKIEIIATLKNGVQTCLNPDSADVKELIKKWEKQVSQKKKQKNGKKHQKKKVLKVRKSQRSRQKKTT
Description: as §1

[3] = biological target: T3, recombinant human CX3CL1 (Chemokine Domain) (human, UniProt P78423 25-100)
T3 construct: domain: Chemokine Domain; also called FKN
T3 sequence (looked up): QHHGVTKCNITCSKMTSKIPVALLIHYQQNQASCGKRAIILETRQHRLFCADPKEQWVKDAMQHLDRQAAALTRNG
Description: as §1

[4] = biological target: T4, recombinant human CCL11 (human, UniProt P51671 24-97)
T4 construct: also called Eotaxin
T4 sequence (P51671 24-97 limits assumed): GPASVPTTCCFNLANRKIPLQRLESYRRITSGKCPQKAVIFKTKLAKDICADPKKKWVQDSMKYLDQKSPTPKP
Description: as §1

[5] = biological target: T5, recombinant human CCL21 (human, UniProt O00585 24-134)
T5 construct: also called 6Ckine/SLC
T5 sequence (looked up): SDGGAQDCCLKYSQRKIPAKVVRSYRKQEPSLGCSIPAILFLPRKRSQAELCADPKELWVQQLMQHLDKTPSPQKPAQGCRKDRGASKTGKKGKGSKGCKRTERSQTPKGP
Description: as §1

[6] = biological target: T6, recombinant human CXCL1 (human, UniProt P09341 35-107)
T6 construct: also called GROα
T6 sequence (looked up): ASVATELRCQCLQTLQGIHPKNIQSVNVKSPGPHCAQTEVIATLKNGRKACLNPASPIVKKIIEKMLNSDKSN
Description: as §1

[7] = biological target: T7, recombinant human CCL24 (human, UniProt O00175 27-119, limits assumed)
T7 construct: also called Eotaxin-2/MPIF-2
T7 sequence (looked up): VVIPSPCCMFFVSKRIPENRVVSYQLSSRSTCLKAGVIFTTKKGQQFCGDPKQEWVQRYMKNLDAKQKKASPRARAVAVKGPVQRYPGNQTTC
Description: as §1

[8] = biological target: T8, recombinant human CCL3 (human, UniProt P10147 27-92, limits assumed)
T8 construct: also called MIP-1a
T8 sequence (looked up): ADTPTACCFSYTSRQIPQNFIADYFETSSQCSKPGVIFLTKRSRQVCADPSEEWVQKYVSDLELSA
Description: as §1

[9] = biological target: T9, recombinant human CCL13 (human, UniProt Q99616 24-98)
T9 construct: also called MCP-4
T9 sequence (Q99616 24-98 limits assumed): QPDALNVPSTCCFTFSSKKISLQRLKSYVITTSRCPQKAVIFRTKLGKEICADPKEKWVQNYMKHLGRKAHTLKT
Description: as §1

[10] = biological target: T10, recombinant human CCL27 (human, UniProt Q9Y4X3 25-112)
T10 construct: also called CTACK
T10 sequence (looked up): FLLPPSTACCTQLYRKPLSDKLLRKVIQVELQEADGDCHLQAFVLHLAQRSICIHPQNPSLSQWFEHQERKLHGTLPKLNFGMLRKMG
Description: as §1

[11] = biological target: T11, recombinant human CCL2 (human, UniProt P13500 24-99)
T11 construct: also called MCP-1/MCAF/JE
T11 sequence (P13500 24-99 limits assumed): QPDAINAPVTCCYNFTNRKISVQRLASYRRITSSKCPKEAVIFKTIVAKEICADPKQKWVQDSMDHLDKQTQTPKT
Description: as §1

[12] = biological target: T12, recombinant human CXCL13 (human, UniProt O43927 23-109)
T12 construct: also called BCA-1/BLC
T12 sequence (looked up): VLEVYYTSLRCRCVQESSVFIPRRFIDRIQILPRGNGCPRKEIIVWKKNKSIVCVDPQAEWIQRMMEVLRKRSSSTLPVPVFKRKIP
Description: as §1

[13] = biological target: T13, recombinant human CCL1 (human, UniProt P22362 24-96, limits assumed)
T13 sequence (looked up): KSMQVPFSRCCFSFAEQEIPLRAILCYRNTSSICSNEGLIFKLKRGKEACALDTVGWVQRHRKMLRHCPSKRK
Description: as §1

[14] = biological target: T14, recombinant human CXCL12 (human, UniProt P48061-2 22-89)
T14 construct: also called SDF-1/PBSF
T14 sequence (P48061 22-89 limits assumed): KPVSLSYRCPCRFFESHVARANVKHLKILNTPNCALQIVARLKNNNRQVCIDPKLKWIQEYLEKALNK
Description: as §1

[15] = biological target: T15, recombinant human CXCL8 (human, UniProt P10145 28-99)
T15 construct: also called IL-8
T15 sequence (looked up): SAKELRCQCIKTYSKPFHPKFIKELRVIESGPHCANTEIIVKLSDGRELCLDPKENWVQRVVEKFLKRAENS
Description: as §1

Measured: binding result

B1: humanized anti-human CCL20 antibody 36LK3/36HC2 (antibody, human IgG1, kappa, V domains shown)
VH: QVQLVQSGAEVKKPGASVKVSCKASGYTFTNYWMHWVRQAPGQGLEWMGVIDPSDSYTTYAQKFQGRVTMTVDTSTSTVYMELSSLRSEDTAVYYCARGNYGVDYAMDYWGQGTLVTVSS
VL: DIQMTQSPSSLSASVGDRVTITCGASENIYGALNWYQRKPGKAPKLLIYGATNLADGVPSRFSGSGSGRDYTLTISSLQPEDFATYYCQNVLITPYTFGQGTKLEIKR
notes: expressed in HEK293 cells; also called HC2/LK3; HC2LK3
no binding (tested: 10 ug/ml): [1] | [2] | [3] | [4] | [5] | [6] | [7] | [8] | [9] | [10] | [11] | [12] | [13] | [14] | [15]

B2: humanized anti-human CCL20 antibody 36LC3/36HC2 (antibody, human IgG1, kappa, V domains shown)
VH: QVQLVQSGAEVKKPGASVKVSCKASGYTFTNYWMHWVRQAPGQGLEWMGVIDPSDSYTTYAQKFQGRVTMTVDTSTSTVYMELSSLRSEDTAVYYCARGNYGVDYAMDYWGQGTLVTVSS
VL: DIQMTQSPSSLSASVGDRVTITCRASENIYGALNWYQQKPGKAPKLLIYGATNLADGVPSRFSGSGSGRQYSLTISSLQPEDFATYYCQNVLITPYTFGGGTKLEIKR
notes: expressed in HEK293 cells; also called HC2/LC3; HC2LC3
no binding (tested: 10 ug/ml): [1] | [2] | [3] | [4] | [5] | [6] | [7] | [8] | [9] | [10] | [11] | [12] | [13] | [14] | [15]

B3: mouse anti-human CCL20 monoclonal antibody 36F7C10 (antibody, V domains shown)
VH: QVQLQQPGAELVKPGASVKMSCKASGYTFTNYWMHWVKQRPGQGLEWIGVIDPSDSYTTYNQKFKGKATLTVDTSSSTAYMQLSSLTSEDSAVYYCTRGNYGVDYAMDYWGQGTSVTVSS
VL: DIQMTQSPASLSASVGETVTITCGASENIYGALNWYQRKQGKSPQLLIYGATNLADGMSSRFSGSGSGRQYSLKISSLHPDDVATYYCQNVLITPYTFGGGTKLEIK
notes: Mouse hybridoma antibody; also called MouseMAb; parental mouse clone 36F7C10
no binding (tested: 10 ug/ml): [1] | [2] | [3] | [4] | [5] | [6] | [7] | [8] | [9] | [10] | [11] | [12] | [13] | [14] | [15]

B4: chimeric 36F7C10 antibody (36F7C10-hFc) (antibody, V domains shown)
VH: QVQLQQPGAELVKPGASVKMSCKASGYTFTNYWMHWVKQRPGQGLEWIGVIDPSDSYTTYNQKFKGKATLTVDTSSSTAYMQLSSLTSEDSAVYYCTRGNYGVDYAMDYWGQGTSVTVSS
VL: DIQMTQSPASLSASVGETVTITCGASENIYGALNWYQRKQGKSPQLLIYGATNLADGMSSRFSGSGSGRQYSLKISSLHPDDVATYYCQNVLITPYTFGGGTKLEIK
notes: also called chimeric 36F710; Chimeric MAb
no binding (tested: 10 ug/ml): [1] | [2] | [3] | [4] | [5] | [6] | [7] | [8] | [9] | [10] | [11] | [12] | [13] | [14] | [15]
